The numbers were not newly measured in article PMC2880639, which cites them from elsewhere.

The data set addresses His62 (UniProt position 62, VESEAHPGSVQ). Nature of the data set: kinetics. The conditions noted are these: dissociated species undergoing association.

As a reminder, the pKa is the pH at which an ionisable group is half protonated. Take “R67 dihydrofolate reductase (type II DHFR) (Escherichia coli (plasmid R67))”: the pKa is reported as 6.6.
